Positions count from the first letter of the chain named. Each block holds one binder with its values, some of them ahead of it.
Experiments:
[1] = molecular target: neuropilin-1 (NRP1) on HEK293 cells overexpressing NRP1 (UniProt O14786); assay: flow cytometry, HEK293-NRP1 vs HEK293
[2] = molecular target: T1, neuropilin-1 (NRP1) on HEK293 cells overexpressing NRP1 (UniProt O14786 22-923, limits assumed); assay: flow cytometry, HEK293-NRP1 vs HEK293
T1 construct: whole, on cells

[3] = molecular target: neuropilin-1 (NRP1), analyte in SPR (UniProt O14786 22-644, limits assumed); assay: SPR, Carterra LSA, antibody coupled
Procedure: SPR experiments were performed on a Carterra LSA SPR biosensor equipped with a HC30M chip at 25° C. in HBS-TE. Antibodies were diluted to 10 μg/mL and amine-coupled to the sensor chip by EDC/NHS activation, followed by ethanolamine HCl quenching. Increasing concentrations of analyte were flowed over the sensor chip in HBS-TE with 0.5 mg/mL BSA with 5-minute association and 15-minute dissociation. Following each injection cycle the surface was regenerated with 2× 30-second injections of IgG elution buffer (Thermo). Data were analyzed in Carterra's Kinetics Tool software with 1:1 binding model.

100 nM FACS (MFI Ratio) [1]: 1.7
B1: NRP1-84 (VHH)
VHH: EVQLVESGGGLVQPGGSLRLSCAASGRTFSNYKMGWFRQAPGKEREFVARIFTDDGDSYYADSVKGRFTISADNSKNTAYLQMNSLKPEDTAVYYCAKWDGLGTLWGQGTLVTVSS

100 nM FACS (MFI Ratio) [1]: 1.9
B2: NRP1-263 (antibody, IgG2, V domains shown)
VH: EVQLLESGGGLVQPGGSLRLSCAASGFTFKKYAMSWVRQAPGKGLEWVSTISGSGRSTYYADSVKGRFTISRDNSKNTLYLQMNSLRAEDTAVYYCARDLARGTMPRGVIIPHNWFDPWGQGTLVTVSS
VL: DIQMTQSPSSLSASVGDRVTITCRASQTISNYLNWYQQKPGKAPKLLIYGATSLQSGVPSRFSGSGSGTDFTLTISSLQPEDFATYYCQQSYNTPTTFGGGTKVEIK

100 nM FACS (MFI Ratio) [1]: 1.9
B3: NRP1-269 (antibody, IgG2, V domains shown)
VH: EVQLLESGGGLVQPGGSLRLSCAASGFTFSNYVMTWVRQAPGKGLEWVSTISGSGGGTFYADSVKGRFTISRDNSKNTLYLQMNSLRAEDTAVYYCATDTVWASAWGSWGQGTLVTVSS
VL: B2 VL with S30R, N31K, G50A, T52S, L78M, N93S, T96I

100 nM FACS (MFI Ratio) [2]: 2.9
binding result [3]: no binding
B4: NRP1-35 (VHH)
VHH: EVQLVESGGGLVQPGGSLRLSCAASGSIFSFNAMGWFRQAPGKERELVASITPGGNINYADSVKGRFTISADNSKNTAYLQMNSLKPEDTAVYYCARDVEGGWYGLSYGMDVWGQGTLVTVSS

100 nM FACS (MFI Ratio) [1]: 1.8
B5: NRP1-105 (VHH)
VHH: EVQLVESGGGLVQPGGSLRLSCAASGTTFRINVMGWFRQAPGKERELVAAMRWSSSSTDYADSVKGRFTISADNSKNTAYLQMNSLKPEDTAVYYCAASIEGVSGRWGQGTLVTVSS

100 nM FACS (MFI Ratio) [1]: 1.7
B6: NRP1-233 (antibody, IgG2, V domains shown)
VH: EVQLLESGGGLVQPGGSLRLSCAASGFSFSTYAMTWVRQAPEKGLEWVSSIGGSGRSTYYADSVKGRFTISRDNSKNTLYLQMNSLRAEDTAVYYCARLKRGGTNLVRKATRYQFYGMDAWGQGTLVTVSS
VL: DIQMTQSPSSLSASVGDRVTITCRASQSISSYLAWYQQKPGKAPKLLIYAGSGLQSGVPSRFSGSGSGTDFTLTISSLQPEDFATYYCQQSFTSPLTFGGGTKVEIK

100 nM FACS (MFI Ratio) [1]: 1.5
B7: NRP1-251 (antibody, IgG2, V domains shown)
VH: EVQLLESGGGLVQPGGSLRLSCAASGSTFSSHAMSWVRQAPGKGLEWVSGISASGGSTHYADSVKGRFTISRDNSKNTLYLQMNSLRAEDTAVYYCARLKRGGTNLVRKATRYQFYGMDAWGQGTLVTVSS
VL: B2 VL with T28S, I29V, N31S, Y32H, G50D, T52S, N93K, T96V

100 nM FACS (MFI Ratio) [1]: 1.5
B8: NRP1-253 (antibody, IgG2, V domains shown)
VH: EVQLLESGGGLVQPGGSLRLSCAASGFTFSNHAMSWVRQAPGKGLEWVSTISGSGGSTYYVDSVKGRFTISRDNSKNTLYLQMNSLRAEDTAVYYCARGGPAPLFDYWGQGTLVTVSS
VL: B6 VL with A25S, A34N, G51A, G53N, L54F, S91T, F92Y, T93S, S94I

100 nM FACS (MFI Ratio) [1]: 2
B9: NRP1-245 (antibody, IgG2, V domains shown)
VH: EVQLLESGGGLVQPGGSLRLSCAASGLTFSRYAMSWVRQAPGKGLEWVSTISGRGGSTNYADSVKGRFTISRDNSKNTLYLQMNSLRAEDTAVYYCAKDSARFISPPRGIRIRGVVLSGFDSWGQGTLVTVSS
VL: B6 VL with S31T, Y32S, A34N, G51T, G53S, S91A, F92Y, T93S, S94T

100 nM FACS (MFI Ratio) [1]: 1.5
B10: NRP1-121 (antibody, IgG2, V domains shown)
VH: QVQLVQSGAEVKKPGSSVKVSCKASGGTFSNYAISWVRQAPGQGLEWMGGIIPINYAQKFQGRVTITADESTSTAYMELSSLRSEDTAVYYCVRRVVGATPFDYWGQGTLVTVSS
VL: DIQMTQSPSSLSASVGDRVTITCRASQIIRRYLNWYQQKPGKAPKLLIYPASSLQSGVPSRFSGSGSGTDFTLTISSLQPEDFATYYCQQAYSTPMFGQGTKVEIK

100 nM FACS (MFI Ratio) [1]: 2
B11: NRP1-82 (VHH)
VHH: EVQLVESGGGLVQPGGSLRLSCAASGRTFNRYPMGWFRQAPGKEREWVSAINSNGNRYYYADSVKGRFTISADNSKNTAYLQMNSLKPEDTAVYYCAIHTSREIWGQGTLVTVSS

Source: patent US20230265198A1 (TWIST BIOSCIENCE, published 2023)
